Results published in US9096835B2, “DNA polymerase” (Medical Research Council, priority 2003, dated 2015).
Where “and” joins values, the source holds several entries; their conditions need not be identical. Equal entries are not always repeated. Entries after “also recorded” stand apart in the source; their conditions may differ.

Tests used:
[1] = PCR with all four dNTPs replaced by αS dNTPs; format: biochemical; conditions: 50 cycle PCR, 50 μM αS dNTPs
Experimental: A PCR assay was used to screen and rank clones. Briefly, clones were normalized for activity in PCR with matched primers 3, 4 and activity with mismatched primers 1 and 2 (1 μM each) determined at minimal cycle number (15-25 cycles). Extension capability for different mismatches was determined by the same assay using mismatch primers 2 (C•C mismatch), 5 (A•A mismatch), 6 (G•G mismatch), 7 (G•A mismatch) with matched primer 3 or primer 1 (A•G mismatch) with matched primer 4. Incorporation of unnatural substrates in 50 cycle PCR was carried out using standard conditions and 50 μM […] dNTPs (Promega) or 50 μM FITC-12-dATP (Perkin-Elmer), Rhodamine-5-dUTP (Perkin-Elmer) or Biotin-16-dUTP (Roche) with equivalent amounts of the other 3 dNTPs (all 50 μM). Long PCR was carried out using a two-step cycling protocol as described (22) 94° C. for 2 minutes, followed by 20 cycles of (94° C. 15 sec, 68° C. 30 min) using 5 ng of phage λ DNA (New England Biolabs) template and either primers 9, 10, 11 with primer 12 or primer 13 with primers 10, 14.

[2] = tested on: template containing a cis-syn cyclobutane thymine-thymine dimer (CPD); experiment: Translesion replication assay (primer extension), CPD; format: biochemical; conditions: gel-extension assay, 60° C.
Experimental: (§1) Template primers 22 (undamaged) or 23 (containing a synthetic abasic site) were synthesized by Lofstrand Laboratories (Gaithersburg, Md.). Template primer 24 (containing a single cis-syn thymine dimer), was synthesized as described (34). Primer 25 was ^32P-labeled and annealed to one of the three templates 22, 23, 24 (at a primer template ratio of molar 1:1.5) and extended in 40 mM Tris.HCl at pH 8.0, 5 mM MgCl2, 100 μM of each dNTP, 10 mM DTT, 250 μg/ml BSA, 2.5% glycerol, 10 nM primer-template DNA and 0.1 Unit of polymerase at 60° C. for various times.
(§2) Primer extension assays were essentially as described in (Ghadessy et al., 2004). Briefly, undamaged oligonucleotides and a 51mer containing a synthetic abasic site were synthesized by Lofstrand Laboratories (Gaithersburg, Md.) using standard techniques and were gel purified prior to use. A 20mer primer (LES—20 P) with the sequence 5′-[…]-3′ (SEQ ID NO: 99) was 5′-labeled with [^32P]ATP (5000 Ci/mmole; 1 Ci=37 GBq) (Pharmacia) using T4 polynucleotide kinase (Invitrogen, Carlsbad Calif.). Radiolabeled primer-template DNAs were prepared by annealing the 5′[^32P] labeled 20mer primer to one of the two following 51mer templates (at a primer template ratio of molar 1:1.5). 1) undamaged DNA (UNDT51T); 5′-AGCTACCATGCCTGCACGAATTCGGCATCCGTCGCGACCACGGTCGCAGCG-3′ (SEQ ID NO: 100); 2) an oligo (LABA51T) containing a synthetic abasic site (indicated as an X in bold font); 5′-AGCTACCATGCCTGCACGACA XCG GCATCCGTCGCGACCACGGTCGCAGCG-3′ (SEQ ID NO: 101). Standard replication reactions of 10 contained 40 mM Tris.HCl at pH 8.0, 5 mM MgCl2, 100 μM of each ultrapure dNTP (Amersham Pharmacia Biotech, NJ), 10 mM DTT, 250 μg/ml BSA, 2.5% glycerol, 10 nM 5′[32P] primer-template DNA and 0.1 Unit of polymerase. After incubation at 60° C. for various times reactions were terminated by the addition of 10 μl of 95% formamide/10 mM EDTA and the samples heated to 100° C. for 5 min. Reaction mixtures (5 μl) were subjected to 20% polyacrylamide/7 M Urea gel electrophoresis and replication products visualized by PhosphorImager analysis.

[3] = tested on: template containing a single 5-nitroindole; experiment: 5NI replication assay; format: biochemical; conditions: primer extension, 60° C.
Experimental: Primer 26 was ^32P-labeled and annealed to template primer 27 (containing a single 5-nitroindole) in 1× Taq buffer, 0.1 or 0.5 U of the polymerase was added and reactions incubated at 60° C. for 15 mins, after which 40 μM of each dNTP were added and incubation at 60° C. continued for various times.

[4] = biological target: matched and mismatched primer-template duplex; experiment: Template affinity equilibrium binding assay; conditions: not shown
Experimental: An equilibrium binding assay (12) was used to determine relative affinity of polymerases for the mismatched primer-templates used in the kinetics assays. Polymerases were preincubated at 60° C. in 1× Taq buffer with 50 nM ^32P-labeled matched primer-template and 50 nM unlabeled mismatched competitor primer-templates. Reactions were initiated by simultaneous addition of dCTP (200 μM) and trap DNA (XbaI/SalI-restricted sheared salmon sperm DNA, 4.5 mg/ml).

[5] = tested on: template containing an abasic site; experiment: Translesion replication assay (primer extension), abasic site; format: biochemical; conditions: gel-extension assay, 60° C.
Experimental: as §1, §2

[6] = tested on: primer-template duplex, correct or incorrect incoming dNTP; experiment: Steady-state single nucleotide incorporation kinetics, gel-based assay; format: biochemical
Experimental: Kinetic parameters were determined using a gel-based assay essentially as described (16). Primers 15, 16, 17 (3′ base=G, C, A respectively) were ^32P-labeled and annealed to one of template strands 18, 19, 20 (template base=C, G, A respectively) or 21 (template base C different context). Duplex substrates were used at 50 nM final concentration in 1× Taq buffer with various concentrations of enzyme and dNTP. Reactions were carried out at 60° C. for times whereby <20% of primer-template was utilized at the highest concentration of dNTP.
Extension and incorporation kinetics of M1 and M4 for a selection of mismatches were measured using a gel-based steady-state kinetic assay (Goodman) (Tables 1 & 2). M1 and M4 respectively extend a C•C mispair 390 and 75-fold more efficiently than wtTaq. […] The gain in extension efficiency derives predominantly from increased relative Vmax values for the mutant polymerases, while Km for nucleotide substrates remains largely unchanged. For most DNA polymerases the relative efficiency of extending a given mispair (f0ext) is similar to the relative efficiency of forming it (finc) (Goodman 1993, Goodman 1990, Washington 2001). Indeed, M1 and M4 respectively incorporate dCTP opposite template base C 206- and 29-fold more efficiently than wtTaq (Table 2).

B1: M1: Taq mutant G84A, D144G, K314R, E520G, F598L, A608V, E742G; SEQ ID NO: 1 (protein)
chain: MRGMLPLFEPKGRVLLVDGHHLAYRTFHALKGLTTSRGEPVQAVYGFAKSLLKALKEDGDAVIVVFDAKAPSFRHEAYGGYKAARAPTPEDFPRQLALIKELVDLLGLARLEVPGYEADDVLASLAKKAEKEGYEVRILTADKGLYQLLSDRIHVLHPEGYLITPAWLWEKYGLRPDQWADYRALTGDESDNLPGVKGIGEKTARKLLEEWGSLEALLKNLDRLKPAIREKILAHMDDLKLSWDLAKVRTDLPLEVDFAKRREPDRERLRAFLERLEFGSLLHEFGLLESPKALEEAPWPPPEGAFVGFVLSRREPMWADLLALAAAAGGRVHRAPEPYKALRDLKEARGLLAKDLSVLALREGLGLPPGDDPMLLAYLLDPSNTTPEGVARRYGGEWTEEAGERAALSERLFANLWGRLEGEERLLWLYREVERPLSAVLAHMEATGVRLDVAYLRALSLEVAEEIARLEAEVFRLAGHPFNLNSRDQLERVLFDELGLPAIGKTEKTGKRSTSAAVLGALREAHPIVEKILQYRELTKLKSTYIDPLPDLIHPRTGRLHTRFNQTATATGRLSSSDPNLQNIPVRTPLGQRIRRAFIAEEGWLLVVLDYSQIELRVLAHLSGDENLIRVFQEGRDIHTETASWMFGVPREAVDPLMRRAAKTINFGVLYGMSAHRLSQELAIPYEEAQAFIERYFQSFPKVRAWIEKTLEEGRRRGYVETLFGRRRYVPDLEARVKSVRGAAERMAFNMPVQGTAADLMKLAMVKLFPRLEEMGARMLLQVHDELVLEAPKERAEAVARLAKEVMEGVYPLAVPLEVEVGIGEDWLSAKE
modifications: Mutant Thermus aquaticus DNA polymerase
size of PCR products with all four αS dNTPs [1]: up to 2 kbp
CPD bypass in primer extension [2]: able to readily extend all of the primer to the 3′T of the dimer
bypass of template strand 5NI [3]: efficiently bypass template strand 5NI
dissociation constants for matched and mismatched primer-template duplex [4]: indistinguishable
abasic site bypass in primer extension [5]: able to extend past the lesion and to the end of the template; also recorded: capable of both insertion opposite the abasic site and lesion bypass
Km ([6]; base pair C: dCTP): 264 µM
Ratio of finc, finc (mutant polymerase)/finc (wtTaq) ([6]; base pair C: dCTP): 206 and 206.74
finc, f (incorrect dNTP)/f (correct dNTP) ([6]; base pair C: dCTP): 7.97 × 10^−6
Vmax ([6]; base pair C: dCTP (template base: incoming nucleotide)): 6.08 % Min^−1
Vmax ([6]; base pair C: dGTP (template base: incoming nucleotide), correct dNTP): 111.66 % Min^−1
Km ([6]; base pair C: dGTP, correct dNTP): 0.0387 µM
Km ([6]; base pair G: dATP): 257 µM
Ratio of finc, finc (mutant polymerase)/finc (wtTaq) ([6]; base pair G: dATP): 2.08
finc, f (incorrect dNTP)/f (correct dNTP) ([6]; base pair G: dATP): 1.72 × 10^−4
Vmax ([6]; base pair G: dATP (template base: incoming nucleotide)): 681.82 % Min^−1
Vmax ([6]; base pair G: dCTP (template base: incoming nucleotide), correct dNTP): 308 % Min^−1
Km ([6]; base pair G: dCTP, correct dNTP): 0.02 µM
Km ([6]; base pair G: dGTP): 377 µM
Ratio of finc, finc (mutant polymerase)/finc (wtTaq) ([6]; base pair G: dGTP): 21.88
finc, f (incorrect dNTP)/f (correct dNTP) ([6]; base pair G: dGTP): 3.72 × 10^−5
Vmax ([6]; base pair G: dGTP (template base: incoming nucleotide)): 215.98 % Min^−1
Km ([6]; base pair G: dTTP): 1.65 µM
Ratio of finc, finc (mutant polymerase)/finc (wtTaq) ([6]; base pair G: dTTP): 2.43
finc, f (incorrect dNTP)/f (correct dNTP) ([6]; base pair G: dTTP): 4.01 × 10^−4
Vmax ([6]; base pair G: dTTP (template base: incoming nucleotide)): 10.19 % Min^−1
